# From patent US20220389118A1 (Chugai, published 2022)
# B1: IL6R-BP445/IL6R-L (antibody, human IgG1, kappa)
# heavy: QVQLQESGPGLVKPSETLSLTCAVSGHSISHDHAWSWVRQPPGEGLEWIGFISYSGITNYNPSLQGRVTISRDNSKNTLYLQMNSLRAEDTAVYYCARSLARTTAMDYWGEGTLVTVSSASTKGPSVFPLAPSSKSTSGGTAALGCLVKDYFPEPVTVSWNSGALTSGVHTFPAVLQSSGLYSLSSVVTVPSSSLGTQTYICNVNHKPSNTKVDKKVEPKSCDKTHTCPPCPAPDLLGDDSVFLFPPKPKDTLMISRTPEVTCVVIDVAEEDGEVKFNWYVDGVEVHNAKTKPREEQYNSTYRVVSVLTVLHQDWLNGKEYKCKVSNKALPRPIEKTISKAKGQPREPQVYTLPPSRDELTKNQVSLTCLVKGFYPSDIAVEWESNGQPENNYKTTPPVLDSDGSFFLYSKLTVDKSRWQQGNVFSCSVMHEALHNHYTQESLSLSP
# light: not shown
# notes: copies: 2 + 2
# B2: IL6R-BP264/IL6R-L (antibody, human IgG1, kappa)
# heavy: QVQLQESGPGLVKPSETLSLTCAVSGHSISHDHAWSWVRQPPGEGLEWIGFISYSGITNYNPSLQGRVTISRDNSKNTLYLQMNSLRAEDTAVYYCARSLARTTAMDYWGEGTLVTVSSASTKGPSVFPLAPSSKSTSGGTAALGCLVKDYFPEPVTVSWNSGALTSGVHTFPAVLQSSGLYSLSSVVTVPSSSLGTQTYICNVNHKPSNTKVDKKVEPKSCDKTHTCPPCPAPDLLGDDSVFLFPPKPKDTLMISRTPEVTCVVVDVSEEDGEVKFNWYVDGVEVHNAKTKPREEQDNSTYRVVSVLTVLHQDWLNGKEYKCKVSNKALPRPIEKTISKAKGQPREPQVYTLPPSRDELTKNQVSLTCLVKGFYPSDIAVEWESNGQPENNYKTTPPVLDSDGSFFLYSKLTVDKSRWQQGNVFSCSVMHEALHNHYTQESLSLSP
# light: not shown
# notes: copies: 2 + 2
# B3: IL6R-BP268/IL6R-L (antibody, human IgG1, kappa)
# heavy: QVQLQESGPGLVKPSETLSLTCAVSGHSISHDHAWSWVRQPPGEGLEWIGFISYSGITNYNPSLQGRVTISRDNSKNTLYLQMNSLRAEDTAVYYCARSLARTTAMDYWGEGTLVTVSSASTKGPSVFPLAPSSKSTSGGTAALGCLVKDYFPEPVTVSWNSGALTSGVHTFPAVLQSSGLYSLSSVVTVPSSSLGTQTYICNVNHKPSNTKVDKKVEPKSCDKTHTCPPCPAPDLLGDDSVFLFPPKPKDTLMISRTPEVTCVVVDVSEEDGEVKFNWYVDGVEVHNAKTKPREEQDNSTYRVVSVLTVLHQDWLNGKEYKCKVSNKALPAPIEKTISKAKGQPREPQVYTLPPSRDELTKNQVSLTCLVKGFYPSDIAVEWESNGQPENNYKTTPPVLDSDGSFFLYSKLTVDKSRWQQGNVFSCSVMHEALHNHYTQESLSLSP
# light: not shown
# notes: copies: 2 + 2
# B4: IL6R-BP426/IL6R-L (antibody, human IgG1, kappa)
# heavy: QVQLQESGPGLVKPSETLSLTCAVSGHSISHDHAWSWVRQPPGEGLEWIGFISYSGITNYNPSLQGRVTISRDNSKNTLYLQMNSLRAEDTAVYYCARSLARTTAMDYWGEGTLVTVSSASTKGPSVFPLAPSSKSTSGGTAALGCLVKDYFPEPVTVSWNSGALTSGVHTFPAVLQSSGLYSLSSVVTVPSSSLGTQTYICNVNHKPSNTKVDKKVEPKSCDKTHTCPPCPAPDLLGDDSVFLFPPKPKDTLMISRTPEVTCVVVDVAEDDGEVKFNWYVDGVEVHNAKTKPREEQYNSTYRVVSVLTVLHQDWLNGKEYKCKVSNKALPRPIEKTISKAKGQPREPQVYTLPPSRDELTKNQVSLTCLVKGFYPSDIAVEWESNGQPENNYKTTPPVLDSDGSFFLYSKLTVDKSRWQQGNVFSCSVMHEALHNHYTQESLSLSP
# light: not shown
# notes: copies: 2 + 2
# B5: IL6R-BP435/IL6R-L (antibody, human IgG1, kappa)
# heavy: QVQLQESGPGLVKPSETLSLTCAVSGHSISHDHAWSWVRQPPGEGLEWIGFISYSGITNYNPSLQGRVTISRDNSKNTLYLQMNSLRAEDTAVYYCARSLARTTAMDYWGEGTLVTVSSASTKGPSVFPLAPSSKSTSGGTAALGCLVKDYFPEPVTVSWNSGALTSGVHTFPAVLQSSGLYSLSSVVTVPSSSLGTQTYICNVNHKPSNTKVDKKVEPKSCDKTHTCPPCPAPDLLGDDSVFLFPPKPKDTLMISRTPEVTCVVVDVSDEDGEVKFNWYVDGVEVHNAKTKPREEQDNSTYRVVSVLTVLHQDWLNGKEYKCKVSNAALPRPTEKTISKAKGQPREPQVYTLPPSRDELTKNQVSLTCLVKGFYPSDIAVEWESNGQPENNYKTTPPVLDSDGSFFLYSKLTVDKSRWQQGNVFSCSVMHEALHNHYTQESLSLSP
# light: not shown
# notes: copies: 2 + 2
# B6: IL6R-BP480/IL6R-L (antibody, human IgG1, kappa)
# heavy: QVQLQESGPGLVKPSETLSLTCAVSGHSISHDHAWSWVRQPPGEGLEWIGFISYSGITNYNPSLQGRVTISRDNSKNTLYLQMNSLRAEDTAVYYCARSLARTTAMDYWGEGTLVTVSSASTKGPSVFPLAPSSKSTSGGTAALGCLVKDYFPEPVTVSWNSGALTSGVHTFPAVLQSSGLYSLSSVVTVPSSSLGTQTYICNVNHKPSNTKVDKKVEPKSCDKTHTCPPCPAPDLLGDDSVFLFPPKPKDTLMISRTPEVTCVVVDLSEDDGEVKFNWYVDGVEVHNAKTKPREEQYNSTYRVVSVLTVLHQDWLNGKEYKCKVSNKALPAPIEKTISKAKGQPREPQVYTLPPSRDELTKNQVSLTCLVKGFYPSDIAVEWESNGQPENNYKTTPPVLDSDGSFFLYSKLTVDKSRWQQGNVFSCSVMHEALHNHYTQESLSLSP
# light: not shown
# notes: copies: 2 + 2
# B7: IL6R-BP490/IL6R-L (antibody, human IgG1, kappa)
# heavy: QVQLQESGPGLVKPSETLSLTCAVSGHSISHDHAWSWVRQPPGEGLEWIGFISYSGITNYNPSLQGRVTISRDNSKNTLYLQMNSLRAEDTAVYYCARSLARTTAMDYWGEGTLVTVSSASTKGPSVFPLAPSSKSTSGGTAALGCLVKDYFPEPVTVSWNSGALTSGVHTFPAVLQSSGLYSLSSVVTVPSSSLGTQTYICNVNHKPSNTKVDKKVEPKSCDKTHTCPPCPAPELLGDDSVFLFPPKPKDTLMISRTPEVTCVVIDVAEEDGEVKFNWYVDGVEVHNAKTKPREEQYNSTYRVVSVLTVLHQDWLNGKEYKCKVSNKALPRPIEKTISKAKGQPREPQVYTLPPSRDELTKNQVSLTCLVKGFYPSDIAVEWESNGQPENNYKTTPPVLDSDGSFFLYSKLTVDKSRWQQGNVFSCSVMHEALHNHYTQESLSLSP
# light: not shown
# notes: copies: 2 + 2
# B8: IL6R-BP495/IL6R-L (antibody, human IgG1, kappa)
# heavy: QVQLQESGPGLVKPSETLSLTCAVSGHSISHDHAWSWVRQPPGEGLEWIGFISYSGITNYNPSLQGRVTISRDNSKNTLYLQMNSLRAEDTAVYYCARSLARTTAMDYWGEGTLVTVSSASTKGPSVFPLAPSSKSTSGGTAALGCLVKDYFPEPVTVSWNSGALTSGVHTFPAVLQSSGLYSLSSVVTVPSSSLGTQTYICNVNHKPSNTKVDKKVEPKSCDKTHTCPPCPAPELLGDDSVFLFPPKPKDTLMISRTPEVTCVVVDVGEEDGEVKFNWYVDGVEVHNAKTKPREEQDNSTYRVVSVLTVLHQDWLNGKEYKCKVSNKALPRPIEKTISKAKGQPREPQVYTLPPSRDELTKNQVSLTCLVKGFYPSDIAVEWESNGQPENNYKTTPPVLDSDGSFFLYSKLTVDKSRWQQGNVFSCSVMHEALHNHYTQESLSLSP
# light: not shown
# notes: copies: 2 + 2
# B9: IL6R-BP501/IL6R-L (antibody, human IgG1, kappa)
# heavy: QVQLQESGPGLVKPSETLSLTCAVSGHSISHDHAWSWVRQPPGEGLEWIGFISYSGITNYNPSLQGRVTISRDNSKNTLYLQMNSLRAEDTAVYYCARSLARTTAMDYWGEGTLVTVSSASTKGPSVFPLAPSSKSTSGGTAALGCLVKDYFPEPVTVSWNSGALTSGVHTFPAVLQSSGLYSLSSVVTVPSSSLGTQTYICNVNHKPSNTKVDKKVEPKSCDKTHTCPPCPAPELLGDDSVFLFPPKPKDTLMISRTPEVTCVVIDVAEEDGEVKFNWYVDGVEVHNAKTKPREEQYNSTYRVVSVLTVLHQDWLNGKEYKCKVSNKALPAPIEKTISKAKGQPREPQVYTLPPSRDELTKNQVSLTCLVKGFYPSDIAVEWESNGQPENNYKTTPPVLDSDGSFFLYSKLTVDKSRWQQGNVFSCSVMHEALHNHYTQESLSLSP
# light: not shown
# notes: copies: 2 + 2
# B10: IL6R-BP506/IL6R-L (antibody, human IgG1, kappa)
# heavy: QVQLQESGPGLVKPSETLSLTCAVSGHSISHDHAWSWVRQPPGEGLEWIGFISYSGITNYNPSLQGRVTISRDNSKNTLYLQMNSLRAEDTAVYYCARSLARTTAMDYWGEGTLVTVSSASTKGPSVFPLAPSSKSTSGGTAALGCLVKDYFPEPVTVSWNSGALTSGVHTFPAVLQSSGLYSLSSVVTVPSSSLGTQTYICNVNHKPSNTKVDKKVEPKSCDKTHTCPPCPAPDLLGDDSVFLFPPKPKDTLMISRTPEVTCVVIDVAEEDGPVKFNWYVDGVEVHNAKTKPREEQDNSTYRVVSVLTVLHQDWLNGKEYKCKVSNKALPRPIEKTISKAKGQPREPQVYTLPPSRDELTKNQVSLTCLVKGFYPSDIAVEWESNGQPENNYKTTPPVLDSDGSFFLYSKLTVDKSRWQQGNVFSCSVMHEALHNHYTQESLSLSP
# light: not shown
# notes: copies: 2 + 2
# B11: IL6R-BP507/IL6R-L (antibody, human IgG1, kappa)
# heavy: QVQLQESGPGLVKPSETLSLTCAVSGHSISHDHAWSWVRQPPGEGLEWIGFISYSGITNYNPSLQGRVTISRDNSKNTLYLQMNSLRAEDTAVYYCARSLARTTAMDYWGEGTLVTVSSASTKGPSVFPLAPSSKSTSGGTAALGCLVKDYFPEPVTVSWNSGALTSGVHTFPAVLQSSGLYSLSSVVTVPSSSLGTQTYICNVNHKPSNTKVDKKVEPKSCDKTHTCPPCPAPDLLGDDSVFLFPPKPKDTLMISRTPEVTCVVIDVAEEDGPVKFNWYVDGVEVHNAKTKPREEQYNSTYRVVSVLTVLHQDWLNGKEYKCKVSNKALPRPIEKTISKAKGQPREPQVYTLPPSRDELTKNQVSLTCLVKGFYPSDIAVEWESNGQPENNYKTTPPVLDSDGSFFLYSKLTVDKSRWQQGNVFSCSVMHEALHNHYTQESLSLSP
# light: not shown
# notes: copies: 2 + 2
# Experiments:
# Test in all cases: SPR (Biacore)
# [1] = biological target: T1, human FcγRIa extracellular domain with C-terminal His tag (human, UniProt P12314 16-292)
# T1 construct: extracellular domain
# T1 sequence (P12314 16-292): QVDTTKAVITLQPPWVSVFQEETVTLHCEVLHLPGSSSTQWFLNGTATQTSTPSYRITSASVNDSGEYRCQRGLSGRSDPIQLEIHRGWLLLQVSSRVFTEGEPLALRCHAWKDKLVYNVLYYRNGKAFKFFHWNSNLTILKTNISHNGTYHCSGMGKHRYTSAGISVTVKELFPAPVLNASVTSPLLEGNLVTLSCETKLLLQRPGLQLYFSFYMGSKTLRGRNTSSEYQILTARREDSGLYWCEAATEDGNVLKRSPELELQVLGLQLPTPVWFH
# [2] = biological target: T2, human FcγRIIa type R extracellular domain with C-terminal His tag (human, UniProt P12318 34-217)
# T2 construct: extracellular domain; also called FcγRIIaR; FcγRIIa(R)
# T2 sequence (looked up): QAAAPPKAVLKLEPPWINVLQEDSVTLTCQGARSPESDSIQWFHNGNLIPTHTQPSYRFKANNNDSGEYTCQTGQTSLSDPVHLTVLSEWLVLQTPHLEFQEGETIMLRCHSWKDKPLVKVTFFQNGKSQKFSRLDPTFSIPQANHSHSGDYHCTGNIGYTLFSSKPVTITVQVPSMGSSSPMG
# [3] = biological target: T3, human FcγRIIb extracellular domain with C-terminal His tag (human, UniProt P31994 43-217)
# T3 construct: extracellular domain
# T3 sequence (looked up): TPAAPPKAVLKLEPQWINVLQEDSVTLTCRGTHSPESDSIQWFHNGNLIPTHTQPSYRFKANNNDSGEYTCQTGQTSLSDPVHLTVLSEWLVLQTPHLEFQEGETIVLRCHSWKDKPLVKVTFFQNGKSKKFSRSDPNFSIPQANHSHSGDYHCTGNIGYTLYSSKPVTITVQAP
Binder,Kd [1] [nM],Kd [2] [nM],Kd [3] [nM]
B1,2,80,2.6
B2,7.4,350,–
B3,4.5,–,92
B4,1,–,–
B5,1,–,–
B6,–,6300,200
B7,4.5,110,2.4
B8,8.3,–,9.7
B9,2.1,–,25
B10,3.1,120,3.4
B11,2.6,100,2.9
